Reference: the DeepSol protein solubility set

experiment: soluble on expression in E. coli; label from the status in PepcDB or PDB records

Sequence | soluble on expression in E. coli
VSPKTYKDADFYVAPTQQDVNYDLVDDFGANGNDTSDDSNALQRAINAISRKPNGGTLLIPNGTYHFLGIQMKSNVHIRVESDVIIKPTWNGDGKNHRLFEVGVNNIVRNFSFQGLGNGFLVDFKDSRDKNLAVFKLGDVRNYKISNFTIDDNKTIFASILVDVTERNGRLHWSRNGIIERIKQNNALFGYGLIQTYGADNILFRNLHSEGGIALRMETDNLLMKNYKQGGIRNIFADNIRCSKGLAAVMFGPHFMKNGDVQVTNVSSVSCGSAVRSDSGFVELFSPTDEVHTRQSWKQAVESKLGRGCAQTPYARGNGGTRWAARVTQKDACLDKAKLEYGIEPGSFGTVKVFDVTARFGYNADLKQDQLDYFSTSNPMCKRVCLPTKEQWSKQGQIYIGPSLAAVIDTTPETSKYDYDVKTFNVKRINFPVNSHKTIDTNTESSRVCNYYGMSECSSSRWER | soluble
VTEVEQKLQIVHQTLSMLDSHGFENILQEMLQSITLKTGELLGADRTTIFLLDEEKQELWSIVAAGEGDRSLEIRIPADKGIAGEVATFKQVVNIPFDFYHDPRSIFAQKQEKITGYRTYTMLALPLLSEQGRLVAVVQLLNKLKPYSPPDALLAERIDNQGFTSADEQLFQEFAPSIRLILESSRSFYIATQKQRAAAAMMKAVKSLSQSSLDLEDTLKRVMDEAKELMNADRSTLWLIDRDRHELWTKITQDNGSTKELRVPIGKGFAGIVAASGQKLNIPFDLYDHPDSATAKQIDQQNGYRTCSLLCMPVFNGDQELIGVTQLVNKKKTGEFPPYNPETWPIAPECFQASFDRNDEEFMEAFNIQAGVALQNAQLFATVKQQEQGSRSHHHHHH | soluble
VTGFGLRLAEAKARRGPLCLGIDPHPELLRGWDLATTADGLAAFCDICVRAFADFAVVKPQVAFFESYGAAGFAVLERTIAELRAADVLVLADAKRGDIGATMSAYATAWVGDSPLAADAVTASPYLGFGSLRPLLEVAAAHGRGVFVLAATSNPEGAAVQNAAADGRSVAQLVVDQVGAANEAAGPGPGSIGVVVGATAPQAPDLSAFTGPVLVPGVGVQGGRPEALGGLGGAASSQLLPAVAREVLRAGPGVPELRAAGERMRDAVAYLAAV | not soluble
VTPELDEREQEVIVRSAINQFEGFIKLNKKIPPEVLTSLNGIDEAARLADTIAAHMPLKLVDKQQVLEIIDVTERLEFLMGQMESEIDLLQVEKRIRGRVKKQMEKSQREYYLNEQMKAIQKELGEMEDAPDEFETLQKKIDESKMPQEAREKTEQELQKLKMMSPMSAEATVVRSYIDWMVSVPWTKRSKVKKNLAKAEEILNEDHYGLERVKERILEYLAVQNRINKLKGPILCLVGPPGVGKTSLGRSIASATGRKYVRMALGGVRDEAEIRGHRRTYIGSLPGKLIQKMSKVGVKNPLFLLDEIDKMSSDMRGDPASALLEVLDPEQNNSFNDHYLEVDYDLSDVMFVATSNSMNIPGPLLDRMEVIRL | not soluble
VTVQDGNFSFSLESVKKLKDLQEPQEPRVGKLRNFAPIPGEPVVPILCSNPNFPEELKPLCKEPNAQEILQRLEEIAEDPGTCEICAYAACTGC | soluble
VVQPADIDVPETPARPVLVVDFGAQYAQLIARRVREARVFSEVIPHTASIEEIRARQPVALVLSGGPASVYADGAPKLDPALLDLGVPVLGICYGFQAMAQALGGIVAHTGTREYGRTELKVLGGKLHSDLPEVQPVWMSHGDAVTAAPDGFDVVASSAGAPVAAFEAFDRRLAGVQYHPEVMHTPHGQQVLSRFLHDFAGLGAQWTPANIANALIEQVRTQIGDGHAICGLSGGVDSAVAAALVQRAIGDRLTCVFVDHGLLRAGERAQVQRDFVAATGANLVTVDAAETFLEALSGVSAPEGKRKIIGRQFIRAFEGAVRDVLDGKTAEFLVQGTLYPDVVESGGGSGTANIKSHHNVGGLPDDLKFTLVEPLRLLFKDEVRAVGRELGLPEEIVARQPFPGPGLGIRIVGEVTAKRLDTLRHADSIVREELTAAGLDNQIWQCPVVLLADVRSVGVQGDGRTYGHPIVLRPVSSEDAMTADWTRVPYEVLERISTRITNEVAEVNRVVLDITSKPPATIEWE | not soluble
WKRGKISTQLDDDEFRAGMRKAQVIDVREKKEFDAGHILGARNIPYSQMKNRTQELRSDLPVYLYDQGRTFSGRAAMLLSKKGFTQLYILKNGYQRWTGKTKKTKY | soluble
WTVNPYRGCTHACVYCFARKTHSYLDLDTGLGFDSQIVVKINAPDLLRRQLASRRWHGEHVAMGTNVDCYQRAEGRYQLMPGIIAALRDHANPFSILTKGTLILRDLDLLEQAAEVTDVGISVSVGFTDHELWRTVEPGTPAPERRLDVVRTLSEHGIGCGVLMAPVIPFLSDQPAQLRATVRAIAAAGATSVTPLVLHLRPGAREWFMAWLEHHHPYLVRRYERLYAEGAYAPKWYQRRITRQVHELAQEYGIGPTRAGMPRRIPEPEPETPPTPEPTQLTLL | not soluble
WYPSRPLVTTPSQADIQADQSSPRDLLEYFLSGLGETSLPVIQQQVQRYEQENQGLLIDSSLFAQYVQYKAALSELTLPQASGGLSTQEWWQLHQSLLDLQARYFSAEQQALFAEENRLRELAIEKRRIYEQYGQSEEAQRAWQALLLDQPDFIQRSEATAQLLPQLTQAGQGDTQQRYLARVALVGEQGAQRLAELDDSRATFEQQFQDYYQARAAILVRNELSASEQQTQIQQLREQHFAPEQWRRIDALERLKDN | not soluble
YEPEGNRADYWRFARALYAAGFRAGELAYNCFSYHFTPAGSMMETAAHAVGCTVFPGGTGQTEQQVRAIHDLAPSGYTGTPSFLKLILEKADELGIRLDSLRRALVSGEAFPPSLRDWLAARGIEGYQAYGSADLGMIAFETPAREGLVVGED | not soluble
YHTEKTLPERTNEAAMSAAVVRGKLVWEQNNCVGCHTLLGEGAYFAPELGNVVGRRGGEEGFNTFLQAWMNIQPLNVPGRRAMPQFHLSEGQVDDLAEFLKWSSKIDTNQWPPNKEG | not soluble
YIQLEGEKFNESARVFTEYLKTKTSDEIPSLLQSYSKSLTISAHLKRDIVDKRLPLVHDLDIKDGKLSNYIVMLDMSVSTADGKQVTVQFVHGVDVYKEAKNI | not soluble
YRATKLWNEVTTSFRAGMPLRKHRQHFKKYGNCFTAGEAVDWLYDLLRNNSNFGPEVTRQQTIQLLRKFLKNHVIEDIKGRWGSENVDDNNQLFRFPA | soluble
YTIKEAERGVVTRFGKFSHLVEPGLNWKPTFIDEVKPVNVEAVRELAASGVMLTSDENVVRVEMNVQYRVTNPEKYLYSVTSPDDSLRQATDSALRGVIGKYTMDRILTEGRTVIRSDTQRELEETIRPYDMGITLLDVNFQAARPPEEVKAAFDDAIAARENEQQYIREAEAYSNEVQPRANGQAQRILEEARAYKAQTILEAQGEVARFAKLLPEYKAAPEITRERLYIETMEKVLGNTRKVLVNDKGGNLMVLPLDQMLKGGNAPAAKSDNGASNLLRLPPASSSTTSGASNTSSTSQGDIMDQRRANAQRNDYQRQGE | not soluble
